Assays:
Format in all cases: cell-based, human
[1] = system: H1299 cells; test: PD-L1 confocal microscopy, IFNγ stimulation
Description: (§1) To obtain fluorescent specimens, similar procedures are used when compared to flow cytometry. The sample is stained with a primary antibody that is specific for a protein of interest. The primary antibody can be conjugated to a fluorescent molecule or a secondary antibody can be used that attaches to the primary antibody. For intracellular staining of cells, the specimen can be fixed and permeabilized using methanol, formalin or a fixative containing a detergent. Subsequently, the specimen is stained with primary and/or secondary antibodies. For this dataset, samples were stained for PD-L1 in suspension using the same protocol that was used for the flow cytometry dataset. The protocol used was as follows:
(§2) Samples (150 uL per tube) were first incubated with a blocking reagent (BD cat #564219, Lot #9305316) at 1:20 for 15 min at room temperature. Alexa 488-conjugated PD-L1 antibody (CST cat #25048, Lot #2) and Alexa 488-conjugated isotype antibody (CST cat #2975, Lot #16) were added to experimental samples and isotype control samples, respectively, at a manufacturer recommended dilution of 1:50 and the samples were incubated for 30 min at room temperature. Other fluorophore-conjugates and PD-L1 antibodies, including those targeting different epitopes, can be readily used. Additionally, antibodies detecting other biomarkers with appropriate processing (e.g. permeabilization of cells) to predict response (e.g. p-STAT-1) can be used. Following the incubation with an antibody, 1 mL of 2% FBS in PBS was added to each tube to dilute the antibody. Samples were then centrifuged at 200 rcf for 5 min. Supernatant was carefully aspirated and 200 uL of 10% neutral buffered formalin (NBF) was added. Samples were then fixed for 10 min at room temperature. NBF was diluted with 1 mL of 2% FBS in PBS and the samples were centrifuged at 200 rcf for 5 min. Supernatant was aspirated and the cells were resuspended in 0.5 mL of 2% FBS in PBS for flow cytometric analysis. In this experiment, 10% NBF was used to fix cells, but other fixatives, for example, 4% paraformaldehyde can be used. For localization experiments an anti-phosphotyrosine antibody, anti-human/mouse, PE-Vio® 770 (Miltenyi Biotec, Cat #130-109-112) and an anti-PD-L1 antibody, anti-human, Brilliant Violet 650 (BV650; BD Biosciences, Cat #563740) were used. […]
(§3) PD-L1 was assessed in four cell lines (FIG. 35A). PD-L1 was quantified by analyzing FITC-PD-L1 using an 8-bit photomultiplier tube and quantified as raw arbitrary units (FIG. 35B). The PD-L1 expression of the four cell lines was quantified in treated and untreated conditions. […] Thus, PD-L1 expression can be measured qualitatively and quantitatively using confocal microscopy and other fluorescent microscopy techniques.

[2] = system: SKMES1 cells; test: PD-L1 confocal microscopy, IFNγ stimulation
Description: as §1, §2, §3

[3] = system: H460 cells; test: PD-L1 flow cytometry, IFNγ modulation
Procedure: Samples (150 uL per tube) were first incubated with a blocking reagent at 1:20 for 15 min at room temperature. Alexa 488-conjugated PD-L1 antibody (CST cat #25048, Lot #2) and Alexa 488-conjugated isotype antibody (CST cat #2975, Lot #16) were added to experimental samples and isotype control samples, respectively, at a manufacturer recommended dilution of 1:50 and the samples were incubated for 30 min at room temperature. Other fluorophore-conjugates and PD-L1 antibodies, including those targeting different epitopes, can be readily used. Additionally, antibodies detecting other biomarkers with appropriate processing (e.g. permeabilization of cells) to predict response (e.g. p-STAT-1) can be used. Following the incubation with an antibody, 1 mL of 2% FBS in PBS was added to each tube to dilute the antibody. Samples were then centrifuged at 200 rcf for 5 min. Supernatant was carefully aspirated and 200 uL of 10% neutral buffered formalin (NBF) was added. Samples were then fixed for 10 min at room temperature. NBF was diluted with 1 mL of 2% FBS in PBS and the samples were centrifuged at 200 rcf for 5 min. Supernatant was aspirated and the cells were resuspended in 0.5 mL of 2% FBS in PBS for flow cytometric analysis. In this experiment, 10% NBF was used to fix cells, but other fixatives, for example, 4% paraformaldehyde can be used.
Flow cytometry was performed using BDTM LSR II cytometer and BD FACSDiva™ data acquisition software. Any commercially available flow cytometry analysis software can be used, such as FlowJo (BD) and FCS Express (De Novo Software). Additionally, other flow cytometry instruments can be readily used. A total of 20,000 events were recorded for each sample. A Scatter gate was first applied, and a singlet gate was then applied on the scatter population to exclude doublet population. A 488 nm blue laser and a 530 nm detector were used to capture PD-LL signal. Any signal above the isotype control signal of the singlet population was considered PD-L1+(see FIG. 33). Though it was excluded from this experiment, cell viability can be assessed, and dead cells excluded from analysis, using stains such as Live/Dead™ Fixable Dead Cell Stain (Thermo) for fixed cells, or either 7-AAD (7-Aminoactinomycin D) or Propidium Iodide for unfixed cells.
A percent change in PD-L1+ events between Untreated (non-modulated; vehicle control) and Treated (modulated with IFNγ) samples was calculated for each of the four cell lines tested (Table 2). […] A percent change in PD-L1 signal between Untreated and Treated samples was calculated for each of the four cell lines tested. […] The mean PD-L1 signal was used to calculate the percent change, however, median (as shown in FIGS. 34A-34H), geometric mean, mode or any other averaging method can also be used. To assess the difference in PD-L1 expression level or number of PD-L1+ events between Treated and Untreated samples, either a percent change or fold change can be calculated. Differences in PD-L1 expression level can also be assessed between a control sample with a known PD-L1 level and a clinical sample with an unknown PD-L1 level. To do so, the assay result of modulated and unmodulated clinical samples should be normalized to that of a control sample. A percent change or fold change between modulated and unmodulated samples can then be calculated using the normalized values. Baseline PD-L1 levels, as well as changes to PD-L1 upon modulation, can be used to predict response to therapy. As mentioned in the Methods section above, the antibody against PD-L1 used in this experiment targets extracellular portion of the PD-L1 molecule and as such, permeabilization was not performed. Antibodies such as those that target other PD-L1 domains would yield different PD-L1 expression patterns depending on the form(s) of PD-L1 present in the cell lines tested. Flow cytometry cannot detect PD-L1 molecules that are already secreted and not bound to other cell surfaces proteins. […]

B1: IFNγ: human IFNγ, modulator (10 ng/ml; Sigma Aldrich) (protein, UniProt P01579 24-161, looked up)
Interferon gamma: QDPYVKEAENLKKYFNAGHSDVADNGTLFLGILKNWKEESDRKIMQSQIVSFYFKLFKNFKDDQSIQKSVETIKEDMNVKFFNSNKKKRDDFEKLTNYSVTDLNVQRKAIHELIQVMAELSPAAKTGKRKRSQMLFRG
For B1, the “PD-L1 expression by confocal microscopy, untreated and IFNγ treated” value [1] was “negative”, the “PD-L1 expression by confocal microscopy, untreated and IFNγ treated” value [2] was “innate expression” and the “Mean PD-L1 signal in Singlets, % change (Treated - Untreated)/Untreated” value ([3]; IFNγ treated vs untreated) was 20%. For the same molecule, the “Mean PD-L1 signal in Singlets, Fold change (Treated/Untreated)” value ([3]; IFNγ treated vs untreated) was 1.20, the “Number of Events in PD-L1 + population, % change (Treated - Untreated)/Untreated” value ([3]; IFNγ treated vs untreated) was 4% and the “Number of Events in PD-L1 + population, Fold change (Treated/Untreated)” value ([3]; IFNγ treated vs untreated) was 1.04. For the same molecule, the “Mean PD-L1 signal in Singlets, Treated” value ([3]; modulated with IFNγ) was 1646 and the “Number of Events in PD-L1 + population, Treated” value ([3]; modulated with IFNγ, 20,000 events recorded) was 13382.

— patent US20220347267A1, “METHODS TO IMPROVE PATIENT RESPONSE TO IMMUNE CHECKPOINT INHIBITORS AND FUNCTIONAL TESTS TO PREDICT RESPONSE” (Biomarker Strategies, LLC, priority 2019, published 2022)
